One may read the Kd as the constant that tells how readily two partners part at equilibrium. Read a high Kd as lower affinity.

The target in the test is T1, hResistin (human, UniProt Q9HD89 19-108).
T1 construct: Immobilised on the SPR chip; also called human resistin; resistin protein
T1 sequence (looked up): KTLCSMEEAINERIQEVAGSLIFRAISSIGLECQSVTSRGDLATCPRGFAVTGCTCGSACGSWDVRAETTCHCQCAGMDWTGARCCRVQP
The test can be described thus: SPR (Reichert SR7500DC), hResistin immobilised on CMDH chip, peptide injected in PBS. As for the experimental part:
To measure the direct binding of hResistin and VS_peptide (SEQ ID NO: 2), SPR analysis was performed using Reichert SR7500DC system. hResistin (1.8 ug) and hPCSK9 (1.6 ug) proteins were immobilized on the carboxymethyl dextran hydrogel surface sensor chip (CMDH chip, Cat#: 13206066) by using a 10 mM sodium acetate immobilization buffer (pH 5.5 or pH 4.5). VS_peptide (SEQ ID NO: 2) diluted in PBS buffer (pH 7.4) in a dose-dependent manner was injected into the sensor chip (flow rate: 30 μl/min, association time: 3 min) to measure the response unit (RU) for binding strength. After the measurement of RU values for binding strength, PBS buffer (pH 7.4) was allowed to flow over the sensor chip at a rate of 30 μl/min for 3 minutes to measure dissociation RU values of VS_peptide (SEQ ID NO: 2) from hResistin immobilized on the chip. The dissociation equilibrium constant (KD) of VS_peptide (SEQ ID NO: 2) for hResistin was derived using Scrubber2 software (KD=Kd/Kₐ, Kₐ=association rate, Kd=dissociation rate).

B1: VS_peptide (SEQ ID NO: 2) (peptide)
peptide: PPPPGPPPPPVSTSSGSDES
notes: Synthesised by Peptron, Korea; also called peptide VS; Existing peptide
In turn, B1 yielded a Kd of 3.7 mM.

(Values after patent US20200157147A1 (SEOUL NATIONAL UNIVERSITY HOSPITAL, published 2020).)
